Results reported in patent publication US20190077849A1.

Key:
Assay in all cases: cell-based or functional assay
[1] = biological target: HIV-1 Env of ZM215.8.SG3 pseudovirus (clade C) (HIV-1)
[2] = biological target: HIV-1 Env of 6095.V1.C10.SG3 pseudovirus (clade ACD) (HIV-1)
[3] = biological target: HIV-1 Env of ZM106.9.SG3 pseudovirus (clade C) (HIV-1)
[4] = biological target: HIV-1 Env of YU2.DG.SG3 pseudovirus (clade B) (HIV-1) (UniProt P35961)
[5] = biological target: HIV-1 Env of CNE31.SG3 pseudovirus (clade C) (HIV-1)
[6] = biological target: HIV-1 Env of TH966.8.SG3 pseudovirus (clade AE) (HIV-1)
[7] = biological target: HIV-1 Env of PVO.04.SG3 pseudovirus (clade B) (HIV-1)
[8] = biological target: HIV-1 Env of 6101.10.SG3 pseudovirus (clade B) (HIV-1)
[9] = biological target: HIV-1 Env of KER2008.12.SG3 pseudovirus (clade A) (HIV-1)

Row | Substance | IC50, pseudovirus neutralization [1] | IC50, pseudovirus neutralization [2] | IC50, pseudovirus neutralization [3] | IC50, pseudovirus neutralization [4] | IC50, pseudovirus neutralization [5] | IC50, pseudovirus neutralization [6] | IC50, pseudovirus neutralization [7] | IC50, pseudovirus neutralization [8] | IC50, pseudovirus neutralization [9]
1 | 10E8v4 VL Y32K (antibody) | 33 mg/L | 0.359 mg/L | > 50 mg/L | > 50 mg/L | > 50 mg/L | 10.2 mg/L | > 50 mg/L | > 50 mg/L | > 50 mg/L
2 | 10E8v4 VL Y32L (antibody) | 8.75 mg/L | 0.593 mg/L | > 50 mg/L | > 50 mg/L | > 50 mg/L | 4.26 mg/L | > 50 mg/L | 38.6 mg/L | > 50 mg/L
3 | 10E8v4 VL Y32M (antibody) | > 50 mg/L | 1.03 mg/L | > 50 mg/L | > 50 mg/L | > 50 mg/L | 29.8 mg/L | > 50 mg/L | > 50 mg/L | > 50 mg/L
4 | 10E8v4 VL Y32N (antibody) | > 50 mg/L | 2.92 mg/L | > 50 mg/L | > 50 mg/L | > 50 mg/L | > 50 mg/L | > 50 mg/L | > 50 mg/L | > 50 mg/L
5 | 10E8v4 VL Y32P (antibody) | > 50 mg/L | 3.2 mg/L | > 50 mg/L | > 50 mg/L | > 50 mg/L | > 50 mg/L | > 50 mg/L | > 50 mg/L | > 50 mg/L
6 | 10E8v4 VL Y32Q (antibody) | > 50 mg/L | 0.281 mg/L | > 50 mg/L | > 50 mg/L | > 50 mg/L | 11.5 mg/L | > 50 mg/L | > 50 mg/L | > 50 mg/L
7 | 10E8v4 VL Y32R (antibody) | 7.52 mg/L | 0.152 mg/L | > 50 mg/L | > 50 mg/L | > 50 mg/L | 4.08 mg/L | > 50 mg/L | > 50 mg/L | > 50 mg/L
8 | 10E8v4 VL Y32T (antibody) | 9.25 mg/L | 0.145 mg/L | > 50 mg/L | 43.5 mg/L | > 50 mg/L | 3.76 mg/L | > 50 mg/L | > 50 mg/L | > 50 mg/L
9 | 10E8v4 VL Y32V (antibody) | 28.2 mg/L | 0.558 mg/L | > 50 mg/L | > 50 mg/L | > 50 mg/L | 4.96 mg/L | > 50 mg/L | > 50 mg/L | > 50 mg/L
10 | 10E8v4 VL Y32W (antibody) | 0.089 mg/L | 0.005 mg/L | > 50 mg/L | 1.07 mg/L | 0.719 mg/L | 0.029 mg/L | 1.4 mg/L | 0.055 mg/L | > 50 mg/L
